Test results: article PMC12560131

Experiments:
Adalimumab = experiment: SPR
[1] = target: Adalimumab–pM440 complex (Mycoplasma genitalium) (UniProt P47523); experiment: SPR
[2] = target: Adalimumab–pM440 complex (Mycoplasma genitalium) (UniProt P47523); experiment: SPR; single-cycle kinetic titration of TNFα on Adalimumab or on the Adalimumab-pM440 complex

## protein M440 (from UniProt P47523 1-440) (domain or fragment)
Adalimumab
  Kd: < 0.15 nM

## TNFα (from UniProt P01375 1-233) (ligand)
[1]
  fold decrease in affinity against Adalimumab without pM440: 3 fold
  koff: 0.00046 s⁻¹
  kon: 160000 M⁻¹ s⁻¹
[2]
  Kd: 2.94 nM
